Among the data in PMC4509486 are disulfide cross-linking efficiency values, retold here.

Common to all, as to assay: cross-linking; copper-phenanthroline (1 mM CuSO4/3 mM 1,10-phenanthroline) disulfide cross-linking of purified protein (1 mg/ml) in 20 mM HEPES pH 7.4, 150 mM NaCl, 1 mM TCEP, on ice 15 min; non-reducing SDS-PAGE; efficiency = dimer/(monomer + dimer)
Assay [1] addresses GB1-TM-CC1 monocysteine variant G226C (not stated (human or mouse cDNA cloned)) (UniProt Q13586).
Assay [2] addresses GB1-TM-CC1 monocysteine variant I222C (not stated (human or mouse cDNA cloned)) (UniProt Q13586).
The target in assay [3] is GB1-TM-CC1 monocysteine variant A230C (not stated (human or mouse cDNA cloned)) (UniProt Q13586).

As to “GB1-TM-CC1 monocysteine variant G226C (from UniProt Q13586 209-310) (domain or fragment)”, the disulfide cross-linking efficiency in assay [1] is > 70%.
Turning to “GB1-TM-CC1 monocysteine variant I222C (from UniProt Q13586 209-310) (domain or fragment)”, in assay [2], the disulfide cross-linking efficiency is > 70%.
Regarding “GB1-TM-CC1 monocysteine variant A230C (from UniProt Q13586 209-310) (domain or fragment)”, the disulfide cross-linking efficiency in assay [3] was > 70%.
